Assay results reported in patent US20090098112A1 (Genentech, published 2009).

Tests used:
[1] = target: T1, recombinant human integrin α5β1 (R&D) (human, UniProt P08648 42-995; P05556 21-728); test: phage competition ELISA IC50 of the Fab-phage against human integrin α5β1, relative to parental h7H5.v1; down arrow = loss, up arrow = improvement of binding affinity
T1 construct: Bought recombinant heterodimer (R&D); It was used coated on plates and in solution in the phage ELISA, and as analyte or immobilized in BIAcore; also called alpha5beta1; a5b1
Protocol: Substitutions with other resides at various positions was achieved by Kunkel mutagenesis using a separate oligonucleotide for each position. […] The IC50 values for binding affinity were determined by phage competition ELISA in FIG. 6. Two variants, h7H5.v2 and h7H5.v3 as indicated were selected to include glycine substitution at position 65 of CDR-H2, cloned into hIgG1 vector, and evaluated binding affinities using BIAcore instrument.
(§1) MAXISORP™ microtiter plates were coated with recombinant human integrin α5β1 (R&D) at 5 μg/ml in PBS overnight and then blocked with PBST buffer (0.5% BSA and 0.05% Tween 20 in PBS) for an hour at room temperature. Phage from culture supernatants were incubated with serially diluted human integrin α5β1 in PBST buffer in a tissue-culture microtiter plate for an hour, after which 80 μl of the mixture was transferred to the target-coated wells for 15 minutes to capture unbound phage. The plate was washed with PBT buffer (0.05% Tween 20 in PBS), and HRP-conjugated anti-M13 (Amersham Pharmacia Biotech) was added (1:5000 in PBST buffer) for 40 minutes. The plate was washed with PBT buffer and developed by adding tetramethylbenzidine substrate (Kirkegaard and Perry Laboratories, Gaithersburg, Md.). The absorbance at 450 nm was plotted as a function of target concentration in solution to determine phage IC₅₀.

[2] = target: T1, recombinant human integrin α5β1 (R&D); test: phage competition ELISA: Fab-phage incubated with serially diluted soluble human integrin α5β1, unbound phage captured on plate-coated integrin α5β1, anti-M13-HRP, A450
Protocol: Mutation at each position was generated by Kunkel mutagenesis using a separate oligonucleotide. Phage competition ELISA was utilized for evaluating all of the variants. […] Binding affinities (IC50) against human integrin α5β1 was determined.
as §1

T1 sequence (P08648 42-995 limits assumed, chain 1 of 2): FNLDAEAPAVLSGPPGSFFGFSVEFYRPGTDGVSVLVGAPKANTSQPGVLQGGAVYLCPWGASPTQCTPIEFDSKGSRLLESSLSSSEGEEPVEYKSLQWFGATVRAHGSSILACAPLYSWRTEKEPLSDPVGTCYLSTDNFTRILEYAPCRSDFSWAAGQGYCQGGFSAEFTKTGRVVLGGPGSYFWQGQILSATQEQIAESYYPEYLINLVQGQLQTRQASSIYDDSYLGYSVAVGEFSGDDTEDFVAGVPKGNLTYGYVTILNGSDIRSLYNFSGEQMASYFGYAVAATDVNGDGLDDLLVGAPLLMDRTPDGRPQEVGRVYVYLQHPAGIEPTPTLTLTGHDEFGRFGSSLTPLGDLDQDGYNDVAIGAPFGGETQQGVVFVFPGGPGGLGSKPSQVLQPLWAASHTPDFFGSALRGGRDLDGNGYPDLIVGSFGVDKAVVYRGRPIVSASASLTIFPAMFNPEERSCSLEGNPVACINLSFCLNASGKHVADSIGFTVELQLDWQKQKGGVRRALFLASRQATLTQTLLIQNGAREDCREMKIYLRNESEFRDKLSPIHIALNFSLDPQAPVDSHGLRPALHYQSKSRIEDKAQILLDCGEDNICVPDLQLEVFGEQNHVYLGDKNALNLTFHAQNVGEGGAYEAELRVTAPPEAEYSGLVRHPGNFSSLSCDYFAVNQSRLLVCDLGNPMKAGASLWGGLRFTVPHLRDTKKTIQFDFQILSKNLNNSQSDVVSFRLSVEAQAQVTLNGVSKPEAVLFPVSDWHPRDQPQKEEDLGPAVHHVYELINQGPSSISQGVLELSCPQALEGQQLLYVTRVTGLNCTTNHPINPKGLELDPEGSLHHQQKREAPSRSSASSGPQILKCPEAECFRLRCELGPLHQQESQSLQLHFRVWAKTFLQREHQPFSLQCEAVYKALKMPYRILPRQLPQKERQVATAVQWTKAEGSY
T1 sequence (P05556 21-728 limits assumed, chain 2 of 2): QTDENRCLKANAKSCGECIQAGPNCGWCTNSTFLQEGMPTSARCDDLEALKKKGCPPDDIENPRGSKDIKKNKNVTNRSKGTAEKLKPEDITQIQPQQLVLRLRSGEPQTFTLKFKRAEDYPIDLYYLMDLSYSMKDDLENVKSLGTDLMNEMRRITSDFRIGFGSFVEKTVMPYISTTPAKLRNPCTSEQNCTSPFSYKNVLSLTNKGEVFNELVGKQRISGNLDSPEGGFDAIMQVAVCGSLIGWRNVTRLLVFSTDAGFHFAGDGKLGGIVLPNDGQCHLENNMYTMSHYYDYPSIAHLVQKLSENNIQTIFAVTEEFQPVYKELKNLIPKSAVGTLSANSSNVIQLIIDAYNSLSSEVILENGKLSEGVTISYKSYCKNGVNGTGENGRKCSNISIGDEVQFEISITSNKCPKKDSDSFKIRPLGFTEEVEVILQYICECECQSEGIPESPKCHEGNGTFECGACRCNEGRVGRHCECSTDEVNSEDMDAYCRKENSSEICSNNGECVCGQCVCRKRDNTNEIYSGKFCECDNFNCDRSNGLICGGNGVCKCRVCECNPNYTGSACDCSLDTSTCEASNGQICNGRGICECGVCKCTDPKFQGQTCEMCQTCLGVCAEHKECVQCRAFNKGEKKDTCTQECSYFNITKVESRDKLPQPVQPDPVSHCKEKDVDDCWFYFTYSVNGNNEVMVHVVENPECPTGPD

Binder | Relative Fold to h7H5.v1 [1] [fold] | IC50 (read off the curve) [2] [nM] | also measured
CDR-H2:N54S (Fab, part only; not given: VH end, constant domains, phage fusion, V domains shown, not shown: another chain or arm of the molecule; a dimerising Fc or GST; large carriers) VL: DIQMTQSPSSLSASVGDRVTITCKASQNVGSDVAWYQQKPGKAPKTLIYSTSYRYSGVPSRFSGSGSGTDFTLTISSLQPEDFATYYCQQYNSYPFTFGQGTKVEIK VH: EVQLVESGGGLVQPGGSLRLSCAASGYTFTDYYLYWVRQAPGKGLEWIGGISPSSGGTTFNDNFENKATLSVDKSKNTAYLQMNSLRAEDTAVYYCTRDAYGDWYFDVWGQGT | 1 |  | 
N28S(L1)+N92S(L3)+N54S/N60A/N62A/N65S(H2) (Fab, part only; not given: VH end, constant domains, phage fusion, V domains shown, not shown: another chain or arm of the molecule; large carriers) VL: DIQMTQSPSSLSASVGDRVTITCKASQSVGSDVAWYQQKPGKAPKTLIYSTSYRYSGVPSRFSGSGSGTDFTLTISSLQPEDFATYYCQQYSSYPFTFGQGTKVEIK VH: EVQLVESGGGLVQPGGSLRLSCAASGYTFTDYYLYWVRQAPGKGLEWIGGISPSSGGTTFADAFESKATLSVDKSKNTAYLQMNSLRAEDTAVYYCTRDAYGDWYFDVWGQGT |  | 0.04 | 
CDR-H2:N60S (Fab, part only; not given: VH end, constant domains, phage fusion, V domains shown, not shown: another chain or arm of the molecule; a dimerising Fc or GST; large carriers) VL: DIQMTQSPSSLSASVGDRVTITCKASQNVGSDVAWYQQKPGKAPKTLIYSTSYRYSGVPSRFSGSGSGTDFTLTISSLQPEDFATYYCQQYNSYPFTFGQGTKVEIK VH: EVQLVESGGGLVQPGGSLRLSCAASGYTFTDYYLYWVRQAPGKGLEWIGGISPSNGGTTFSDNFENKATLSVDKSKNTAYLQMNSLRAEDTAVYYCTRDAYGDWYFDVWGQGT | 2.5 |  | 
CDR-H2:N60A (Fab, part only; not given: VH end, constant domains, phage fusion, V domains shown, not shown: another chain or arm of the molecule; a dimerising Fc or GST; large carriers) VL: DIQMTQSPSSLSASVGDRVTITCKASQNVGSDVAWYQQKPGKAPKTLIYSTSYRYSGVPSRFSGSGSGTDFTLTISSLQPEDFATYYCQQYNSYPFTFGQGTKVEIK VH: EVQLVESGGGLVQPGGSLRLSCAASGYTFTDYYLYWVRQAPGKGLEWIGGISPSNGGTTFADNFENKATLSVDKSKNTAYLQMNSLRAEDTAVYYCTRDAYGDWYFDVWGQGT | 1.6 |  | 
CDR-H2:N62A (Fab, part only; not given: VH end, constant domains, phage fusion, V domains shown, not shown: another chain or arm of the molecule; a dimerising Fc or GST; large carriers) VL: DIQMTQSPSSLSASVGDRVTITCKASQNVGSDVAWYQQKPGKAPKTLIYSTSYRYSGVPSRFSGSGSGTDFTLTISSLQPEDFATYYCQQYNSYPFTFGQGTKVEIK VH: EVQLVESGGGLVQPGGSLRLSCAASGYTFTDYYLYWVRQAPGKGLEWIGGISPSNGGTTFNDAFENKATLSVDKSKNTAYLQMNSLRAEDTAVYYCTRDAYGDWYFDVWGQGT | 1 |  | 
HC:G49S (Fab, part only; not given: VH end, constant domains, phage fusion, V domains shown, not shown: another chain or arm of the molecule; large carriers) VL: DIQMTQSPSSLSASVGDRVTITCKASQSVGSDVAWYQQKPGKAPKTLIYSTSYRYSGVPSRFSGSGSGTDFTLTISSLQPEDFATYYCQQYSSYPFTFGQGTKVEIK VH: EVQLVESGGGLVQPGGSLRLSCAASGYTFTDYYLYWVRQAPGKGLEWISGISPSSGGTTFADAFEGKATLSVDKSKNTAYLQMNSLRAEDTAVYYCTRDAYGDWYFDVWGQGT |  | 0.07 | 
HC:A78L (Fab, part only; not given: VH end, constant domains, phage fusion, V domains shown, not shown: another chain or arm of the molecule; large carriers) VL: DIQMTQSPSSLSASVGDRVTITCKASQSVGSDVAWYQQKPGKAPKTLIYSTSYRYSGVPSRFSGSGSGTDFTLTISSLQPEDFATYYCQQYSSYPFTFGQGTKVEIK VH: EVQLVESGGGLVQPGGSLRLSCAASGYTFTDYYLYWVRQAPGKGLEWIGGISPSSGGTTFADAFEGKATLSVDKSKNTLYLQMNSLRAEDTAVYYCTRDAYGDWYFDVWGQGT |  | 0.09 | 
h7H5.v2 displayed on phage as a monovalent Fab (Fab, V domains shown, also called humanized 7H5.v2; parental clone) VH: EVQLVESGGGLVQPGGSLRLSCAASGYTFTDYYLYWVRQAPGKGLEWIGGISPSSGGTTFADAFEGKATLSVDKSKNTAYLQMNSLRAEDTAVYYCTRDAYGDWYFDVWGQGT VL: DIQMTQSPSSLSASVGDRVTITCKASQSVGSDVAWYQQKPGKAPKTLIYSTSYRYSGVPSRFSGSGSGTDFTLTISSLQPEDFATYYCQQYSSYPFTFGQGTKVEIKR |  | ~0.06 | 
h7H5.v1 (Fab, part only; not given: VH end, constant domains, phage fusion, V domains shown, not shown: another chain or arm of the molecule; large carriers) VL: DIQMTQSPSSLSASVGDRVTITCKASQNVGSDVAWYQQKPGKAPKTLIYSTSYRYSGVPSRFSGSGSGTDFTLTISSLQPEDFATYYCQQYNSYPFTFGQGTKVEIK VH: EVQLVESGGGLVQPGGSLRLSCAASGYTFTDYYLYWVRQAPGKGLEWIGGISPSNGGTTFNDNFENKATLSVDKSKNTAYLQMNSLRAEDTAVYYCTRDAYGDWYFDVWGQGT |  | 0.05 | 
CDR-L3:N92A (Fab, V domains shown, Fab-phage; also called h7H5.v1 single point mutant, light chain N92A, Fab-phage) VH: EVQLVESGGGLVQPGGSLRLSCAASGYTFTDYYLYWVRQAPGKGLEWIGGISPSNGGTTFNDNFENKATLSVDKSKNTAYLQMNSLRAEDTAVYYCTRDAYGDWYFDVWGQGT VL: DIQMTQSPSSLSASVGDRVTITCKASQNVGSDVAWYQQKPGKAPKTLIYSTSYRYSGVPSRFSGSGSGTDFTLTISSLQPEDFATYYCQQYASYPFTFGQGTKVEIK | 1 |  | 
CDR-L1:N28S (Fab, V domains shown, Fab-phage; also called h7H5.v1 single point mutant, light chain N28S, Fab-phage; copies: 1 + 1) VH: EVQLVESGGGLVQPGGSLRLSCAASGYTFTDYYLYWVRQAPGKGLEWIGGISPSNGGTTFNDNFENKATLSVDKSKNTAYLQMNSLRAEDTAVYYCTRDAYGDWYFDVWGQGT VL: DIQMTQSPSSLSASVGDRVTITCKASQSVGSDVAWYQQKPGKAPKTLIYSTSYRYSGVPSRFSGSGSGTDFTLTISSLQPEDFATYYCQQYNSYPFTFGQGTKVEIK | 1.3 |  | 
h7H5.v2 framework modification clone, heavy chain L69I, displayed on phage as a monovalent Fab (Fab, name in Kabat numbering, V domains shown, Single mutation in h7H5.v2 made by Kunkel mutagenesis; monovalent Fab on phage; The position is Kabat and may be shifted from the count on the entry; also called heavy chain position 69 (L69I)) VH: EVQLVESGGGLVQPGGSLRLSCAASGYTFTDYYLYWVRQAPGKGLEWIGGISPSSGGTTFADAFEGKATISVDKSKNTAYLQMNSLRAEDTAVYYCTRDAYGDWYFDVWGQGT VL: DIQMTQSPSSLSASVGDRVTITCKASQSVGSDVAWYQQKPGKAPKTLIYSTSYRYSGVPSRFSGSGSGTDFTLTISSLQPEDFATYYCQQYSSYPFTFGQGTKVEIKR |  | ~0.05 | 
h7H5.v2 framework modification clone, heavy chain A67F, displayed on phage as a monovalent Fab (Fab, name in Kabat numbering, V domains shown, Single mutation in h7H5.v2 made by Kunkel mutagenesis; monovalent Fab on phage; The position is Kabat and may be shifted from the count on the entry; also called heavy chain position 67 (A67F)) VH: EVQLVESGGGLVQPGGSLRLSCAASGYTFTDYYLYWVRQAPGKGLEWIGGISPSSGGTTFADAFEGKFTLSVDKSKNTAYLQMNSLRAEDTAVYYCTRDAYGDWYFDVWGQGT VL: DIQMTQSPSSLSASVGDRVTITCKASQSVGSDVAWYQQKPGKAPKTLIYSTSYRYSGVPSRFSGSGSGTDFTLTISSLQPEDFATYYCQQYSSYPFTFGQGTKVEIKR |  |  | binding result [2]: binds
h7H5.v2 framework modification clone, heavy chain T30S, displayed on phage as a monovalent Fab (Fab, name in Kabat numbering, V domains shown, Single mutation in h7H5.v2 made by Kunkel mutagenesis; monovalent Fab on phage; also called heavy chain position 30 (T30S)) VH: EVQLVESGGGLVQPGGSLRLSCAASGYTFSDYYLYWVRQAPGKGLEWIGGISPSSGGTTFADAFEGKATLSVDKSKNTAYLQMNSLRAEDTAVYYCTRDAYGDWYFDVWGQGT VL: DIQMTQSPSSLSASVGDRVTITCKASQSVGSDVAWYQQKPGKAPKTLIYSTSYRYSGVPSRFSGSGSGTDFTLTISSLQPEDFATYYCQQYSSYPFTFGQGTKVEIKR |  |  | binding result [2]: binds
h7H5.v2 framework modification clone, light chain T46L, displayed on phage as a monovalent Fab (Fab, name in Kabat numbering, V domains shown, Single mutation in h7H5.v2 made by Kunkel mutagenesis; monovalent Fab on phage; also called light chain position 46 (T46L)) VH: EVQLVESGGGLVQPGGSLRLSCAASGYTFTDYYLYWVRQAPGKGLEWIGGISPSSGGTTFADAFEGKATLSVDKSKNTAYLQMNSLRAEDTAVYYCTRDAYGDWYFDVWGQGT VL: DIQMTQSPSSLSASVGDRVTITCKASQSVGSDVAWYQQKPGKAPKLLIYSTSYRYSGVPSRFSGSGSGTDFTLTISSLQPEDFATYYCQQYSSYPFTFGQGTKVEIKR |  |  | binding result [2]: binds
CDR-L3:N92S (Fab, V domains shown, Fab-phage; also called h7H5.v1 single point mutant, light chain N92S, Fab-phage; copies: 1 + 1) VH: EVQLVESGGGLVQPGGSLRLSCAASGYTFTDYYLYWVRQAPGKGLEWIGGISPSNGGTTFNDNFENKATLSVDKSKNTAYLQMNSLRAEDTAVYYCTRDAYGDWYFDVWGQGT VL: DIQMTQSPSSLSASVGDRVTITCKASQNVGSDVAWYQQKPGKAPKTLIYSTSYRYSGVPSRFSGSGSGTDFTLTISSLQPEDFATYYCQQYSSYPFTFGQGTKVEIK | 1 |  | 
h7H5.v2 framework modification clone, heavy chain K66R, displayed on phage as a monovalent Fab (Fab, name in Kabat numbering, V domains shown, Single mutation in h7H5.v2 made by Kunkel mutagenesis; monovalent Fab on phage; The position is Kabat and may be shifted from the count on the entry; also called heavy chain position 66 (K66R)) VH: EVQLVESGGGLVQPGGSLRLSCAASGYTFTDYYLYWVRQAPGKGLEWIGGISPSSGGTTFADAFEGRATLSVDKSKNTAYLQMNSLRAEDTAVYYCTRDAYGDWYFDVWGQGT VL: DIQMTQSPSSLSASVGDRVTITCKASQSVGSDVAWYQQKPGKAPKTLIYSTSYRYSGVPSRFSGSGSGTDFTLTISSLQPEDFATYYCQQYSSYPFTFGQGTKVEIKR |  |  | binding result [2]: binds
h7H5.v2 framework modification clone, heavy chain I48V, displayed on phage as a monovalent Fab (Fab, name in Kabat numbering, V domains shown, Single mutation in h7H5.v2 made by Kunkel mutagenesis; monovalent Fab on phage; also called heavy chain position 48 (I48V)) VH: EVQLVESGGGLVQPGGSLRLSCAASGYTFTDYYLYWVRQAPGKGLEWVGGISPSSGGTTFADAFEGKATLSVDKSKNTAYLQMNSLRAEDTAVYYCTRDAYGDWYFDVWGQGT VL: DIQMTQSPSSLSASVGDRVTITCKASQSVGSDVAWYQQKPGKAPKTLIYSTSYRYSGVPSRFSGSGSGTDFTLTISSLQPEDFATYYCQQYSSYPFTFGQGTKVEIKR |  |  | binding result [2]: binds
